The values that follow are results of earlier work, collected in publication PMC4860950.

Among the targets are CD2 (Mus musculus) (UniProt P08920); CD2 (Homo sapiens) (UniProt P06729); CD244 (Homo sapiens) (UniProt Q9BZW8).
Chain of UniProt P08920 (P08920 23-203): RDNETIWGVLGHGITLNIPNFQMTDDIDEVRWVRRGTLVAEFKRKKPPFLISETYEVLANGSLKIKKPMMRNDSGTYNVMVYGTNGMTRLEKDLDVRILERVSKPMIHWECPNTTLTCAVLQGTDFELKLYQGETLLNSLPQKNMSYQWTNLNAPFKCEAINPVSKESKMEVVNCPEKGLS
Chain of UniProt P06729 (P06729 25-209): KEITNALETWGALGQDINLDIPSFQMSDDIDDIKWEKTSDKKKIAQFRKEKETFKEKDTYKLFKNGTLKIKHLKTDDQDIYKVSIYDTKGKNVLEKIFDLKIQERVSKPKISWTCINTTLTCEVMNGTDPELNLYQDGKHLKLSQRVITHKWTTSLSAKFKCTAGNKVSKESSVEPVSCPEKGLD
Chain of UniProt Q9BZW8 (Q9BZW8 22-229): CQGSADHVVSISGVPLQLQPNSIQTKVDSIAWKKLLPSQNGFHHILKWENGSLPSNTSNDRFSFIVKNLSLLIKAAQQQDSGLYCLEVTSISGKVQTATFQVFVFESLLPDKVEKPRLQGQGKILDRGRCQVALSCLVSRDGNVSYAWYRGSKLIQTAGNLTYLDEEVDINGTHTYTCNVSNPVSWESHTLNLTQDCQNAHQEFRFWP

Regarding CD48 (from UniProt P18181), the Kd in the series with CD2 (Mus musculus) was 90 µM. With CD48 (from UniProt P09326), the Kd in the series with CD2 (Homo sapiens) is 100 µM; in the series with CD244 (Homo sapiens), 8 µM.
